Our source for the Kd values is article doi:10.1101/2022.06.05.494914.

For this experiment, the target named is PTH 1 receptor (PTH1R), his-tagged (UniProt Q03431). The experiment in a line: BLI. (BLI is a label-free optical method that tracks binding on a fibre tip over time.)
Chain of UniProt Q03431 (Q03431 27-593): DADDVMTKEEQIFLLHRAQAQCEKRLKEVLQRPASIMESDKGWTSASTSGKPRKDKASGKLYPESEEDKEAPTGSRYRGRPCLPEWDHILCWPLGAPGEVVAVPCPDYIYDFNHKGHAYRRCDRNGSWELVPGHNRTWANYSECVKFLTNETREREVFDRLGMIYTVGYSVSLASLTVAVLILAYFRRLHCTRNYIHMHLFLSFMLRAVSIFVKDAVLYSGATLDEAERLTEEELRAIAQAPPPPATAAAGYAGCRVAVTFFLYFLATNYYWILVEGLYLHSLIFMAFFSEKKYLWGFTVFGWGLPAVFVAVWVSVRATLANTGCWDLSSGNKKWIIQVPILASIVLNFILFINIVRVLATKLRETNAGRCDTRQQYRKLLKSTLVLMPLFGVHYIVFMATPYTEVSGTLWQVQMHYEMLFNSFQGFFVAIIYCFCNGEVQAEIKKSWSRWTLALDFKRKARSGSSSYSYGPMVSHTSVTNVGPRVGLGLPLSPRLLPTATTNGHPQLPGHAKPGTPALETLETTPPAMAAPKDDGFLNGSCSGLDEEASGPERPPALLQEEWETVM

Usually Kd stands for the equilibrium constant for the complex coming apart. Take PTH-Fc fusion protein: the Kd came to 2300 nM.

“Parathyroid Hormone PTH (1-34) (peptide)” displayed a Kd of 2310 nM. The Kd values of the last two substances are within 1.5-fold of each other.
